Experimental findings from US20200123260A1 (Pfizer, published 2020) are described below.

The EC50 is the concentration giving half of the maximal effect. A low value points to greater potency. The term Kd denotes the free concentration of one partner at which half of the binding sites on the other are occupied at equilibrium, for simple one-to-one binding. Low values mean tighter binding, high ones weaker binding. One may read the IC50 as the concentration needed to halve the response being measured. Lower therefore signals inhibition by little substance.

Residue numbers refer to the chain shown, from its start. Several values for one entry are separate records, joined by “and”; a condition that tells them apart may be missing. Equal values may be shown once.

For assay [1], the target named is T1, mouse TrkB (nm_001025074) on HEK293 cells (mouse, UniProt P15209 32-821).
T1 construct: whole, on cells; also called rmuTrkB-CRE
The assay is described as follows: cell-based ELISA on transfected 293 cells. On the technique in general: In an ELISA, binding on a coated surface is turned into a signal by an enzyme label.

Assay [2] has as its target T2, TrkB, Cat (Felis domesticus) on 293 cells (cat (Felis domesticus)).
T2 construct: Whole entry with signal peptide; also called cat TrkB
In words: cell-based ELISA on transfected 293 cells.

Assay [3] has as its target T3, Mouse TrkB ectodomain protein (R&D #1494-TB/CF) (mouse, UniProt P15209 32-429).
T3 construct: extracellular domain; Bought protein; also called mouse TrkB-extracellular domain protein
In words: SPR (Biacore), TrkB ectodomain immobilised on CM5, antibody injected. A general note: SPR reads the build-up and loss of mass on a sensor chip optically.

The target of assay [4] is T4, rhTrkB-ECD (R&D #397-TR/CF) (human, UniProt Q16620 32-430).
T4 construct: extracellular domain; Bought protein; also called human TrkB-extracellular domain protein; human TrkB ectodomain protein
The assay is described as above.

The next assay deals with T5, Chimeric TrkB (d5TrkA) (human, UniProt Q16620 32-822).
T5 construct: TrkB residues 284-377 replaced by TrkA residues 280-377
In words: cell-based ELISA on transfected 293 cells, HRP-conjugated secondary antibody, TMB, OD450.

Assay [5] concerns the target Human TrkA, NP_002520, cell-surface expressed on transfected 293 cells (human, UniProt P04629 33-796). Described as above.
A further assay has as its target T6, Chimeric TrkA (d4TrkB) (human).
T6 construct: TrkA residues 187-281 replaced by TrkB residues 190-282
The assay is described as above.

Assay [6] concerns the target T7, recombinant human TrkA-Fc (rhTrkA-ECD, R&D system, 175-TK) (human, UniProt P04629 33-423).
T7 construct: extracellular domain; Bought protein; not shown: Fc part, not described
In words: direct binding ELISA: plate coated with rhTrkA-ECD (Fc chimera) at 5 ug/ml, biotinylated antibody, streptavidin-HRP.

The target in assay [7] is T8, recombinant human TrkC-Fc (rhTrkC-ECD, R&D system, 373-TC/TF) (human, UniProt Q16288 32-429).
T8 construct: extracellular domain; Bought protein; not shown: Fc part, not described
The assay is described as follows: direct binding ELISA: plate coated with rhTrkC-ECD (Fc chimera) at 5 ug/ml, biotinylated antibody, streptavidin-HRP.

Assay [8] deals with T4, rhTrkB-ECD (R&D #397-TR/CF). The assay is described as follows: competition ELISA on coated rhTrkB-ECD; competitor biotinylated chimeric TOA-1 at 25 ng/ml.
The target of assay [9] is T9, human TrkB (open reading frame from nm_006180) on HEK293 cells (human, UniProt Q16620 32-822). In words: cell-based or functional assay.
Assay [10] has as its target hTrkC in the SHC1 recruitment assay (U2OS, Discoverx Pathhunter) (human, UniProt Q16288 32-839). The assay is described as follows: cell-based or functional assay.
In assay [11] the target is hTrkB-a isoform fused to a small peptide epitope, in U2OS cells (Discoverx Pathhunter) (human, UniProt Q16620 32-822). In words: cell-based or functional assay.
The target of assay [12] is T10, Recombinant human IL13 (R&D Systems) (human, UniProt P35225 35-146, limits assumed). In words: SPR stoichiometry, antibody captured on protein A.
Assay [13] deals with T11, Recombinant human CCL20 (Peprotech) (human, UniProt P78556 27-96). The assay is described as follows: SPR stoichiometry, Ab captured on protein A, cytokine at saturation, N = 2.
The target of assay [14] is T10, Recombinant human IL13 (R&D Systems). Described as above.
For assay [15], the target named is T11, Recombinant human CCL20 (Peprotech). In words: SPR stoichiometry, Ab captured on protein A, cytokine at saturation, N = 1.
Another assay has as its target T12, rhTrkB-ECD-His (human, UniProt Q16620 32-430).
T12 construct: extracellular domain
The assay is described as follows: competition ELISA: plate coated with rhTrkB-ECD-His; biotinylated humanized TOA-1 at 25 ng/ml mixed with unlabeled huTOA-1; streptavidin-HRP.

In assay [16] the target is T13, human p75NTR (open reading frame from NM_002507) on HEK293 cells (human, UniProt P08138 29-427).
T13 construct: whole, on cells; also called hu p75NTR
T13 sequence (looked up): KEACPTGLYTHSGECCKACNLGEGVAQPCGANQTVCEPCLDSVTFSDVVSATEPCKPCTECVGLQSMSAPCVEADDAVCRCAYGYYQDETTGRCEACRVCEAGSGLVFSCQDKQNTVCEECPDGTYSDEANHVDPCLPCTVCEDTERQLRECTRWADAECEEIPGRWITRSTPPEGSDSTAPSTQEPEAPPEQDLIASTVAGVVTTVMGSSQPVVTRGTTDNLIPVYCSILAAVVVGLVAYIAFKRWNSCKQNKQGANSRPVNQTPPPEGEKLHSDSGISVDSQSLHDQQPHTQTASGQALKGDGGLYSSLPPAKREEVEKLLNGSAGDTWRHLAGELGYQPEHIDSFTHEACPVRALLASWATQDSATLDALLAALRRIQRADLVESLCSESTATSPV
In words: FACS on transiently transfected HEK293 cells, FITC-labeled mouse anti-human IgG.

The target of assay [17] is T1, mouse TrkB (nm_001025074) on HEK293 …. In words: cell-based ELISA on transiently transfected HEK293 cells.
In assay [18] the target is T2, TrkB, Cat (Felis domesticus) on 293 …. The assay is described as above.
Assay [19] concerns the target hTrkA in the SHC1 recruitment assay (U2OS, Discoverx Pathhunter) (human, UniProt P04629 33-796). The assay is described as follows: cell-based or functional assay.
For assay [20], the target named is T4, rhTrkB-ECD (R&D #397-TR/CF). In words: competition ELISA: plate coated with rhTrkB-ECD; biotinylated chimeric TOA-1 at 25 ng/ml mixed with the unlabeled antibody; streptavidin-HRP.
For a further assay, the target named is T14, Chimeric TrkB (d4TrkA) (human).
T14 construct: TrkB residues 190-282 replaced by TrkA residues 187-281
In words: cell-based ELISA on transfected 293 cells.

Assay [21] has as its target T9, human TrkB (open reading frame from …). In words: cell-based or functional assay. The source holds these as a separate data set.

T2 sequence (chain, as listed by the source limits assumed): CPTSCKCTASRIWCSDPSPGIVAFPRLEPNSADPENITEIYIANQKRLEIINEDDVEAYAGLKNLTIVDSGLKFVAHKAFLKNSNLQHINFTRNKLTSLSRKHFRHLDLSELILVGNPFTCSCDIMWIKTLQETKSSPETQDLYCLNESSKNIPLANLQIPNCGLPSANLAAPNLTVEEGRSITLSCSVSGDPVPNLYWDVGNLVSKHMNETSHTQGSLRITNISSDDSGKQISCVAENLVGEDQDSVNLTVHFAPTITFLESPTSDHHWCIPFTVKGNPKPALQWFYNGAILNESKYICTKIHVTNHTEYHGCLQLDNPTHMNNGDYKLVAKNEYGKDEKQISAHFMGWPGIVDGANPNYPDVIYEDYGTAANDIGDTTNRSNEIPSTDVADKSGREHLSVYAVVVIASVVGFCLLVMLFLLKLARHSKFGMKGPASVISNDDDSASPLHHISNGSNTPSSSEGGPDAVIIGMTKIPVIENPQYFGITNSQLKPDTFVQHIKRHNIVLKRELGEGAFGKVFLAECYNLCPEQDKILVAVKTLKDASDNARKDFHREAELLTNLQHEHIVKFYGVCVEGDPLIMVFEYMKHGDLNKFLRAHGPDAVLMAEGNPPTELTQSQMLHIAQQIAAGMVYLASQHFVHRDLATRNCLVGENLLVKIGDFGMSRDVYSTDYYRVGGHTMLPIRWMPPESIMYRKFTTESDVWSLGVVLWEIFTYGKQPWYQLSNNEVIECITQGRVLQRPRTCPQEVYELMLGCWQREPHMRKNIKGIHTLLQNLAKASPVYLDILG
T3 sequence (P15209 32-429): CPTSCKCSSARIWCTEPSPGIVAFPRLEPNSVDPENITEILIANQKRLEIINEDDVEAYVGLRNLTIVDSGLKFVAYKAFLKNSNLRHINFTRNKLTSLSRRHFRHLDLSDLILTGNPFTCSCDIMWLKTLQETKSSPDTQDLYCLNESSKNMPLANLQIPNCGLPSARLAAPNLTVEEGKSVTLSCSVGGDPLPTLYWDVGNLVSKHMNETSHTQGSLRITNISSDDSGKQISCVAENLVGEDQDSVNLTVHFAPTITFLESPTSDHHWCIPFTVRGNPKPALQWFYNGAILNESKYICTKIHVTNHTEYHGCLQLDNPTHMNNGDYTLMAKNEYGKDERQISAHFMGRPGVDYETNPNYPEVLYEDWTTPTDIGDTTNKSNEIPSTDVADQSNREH
T1 sequence (P15209 32-821): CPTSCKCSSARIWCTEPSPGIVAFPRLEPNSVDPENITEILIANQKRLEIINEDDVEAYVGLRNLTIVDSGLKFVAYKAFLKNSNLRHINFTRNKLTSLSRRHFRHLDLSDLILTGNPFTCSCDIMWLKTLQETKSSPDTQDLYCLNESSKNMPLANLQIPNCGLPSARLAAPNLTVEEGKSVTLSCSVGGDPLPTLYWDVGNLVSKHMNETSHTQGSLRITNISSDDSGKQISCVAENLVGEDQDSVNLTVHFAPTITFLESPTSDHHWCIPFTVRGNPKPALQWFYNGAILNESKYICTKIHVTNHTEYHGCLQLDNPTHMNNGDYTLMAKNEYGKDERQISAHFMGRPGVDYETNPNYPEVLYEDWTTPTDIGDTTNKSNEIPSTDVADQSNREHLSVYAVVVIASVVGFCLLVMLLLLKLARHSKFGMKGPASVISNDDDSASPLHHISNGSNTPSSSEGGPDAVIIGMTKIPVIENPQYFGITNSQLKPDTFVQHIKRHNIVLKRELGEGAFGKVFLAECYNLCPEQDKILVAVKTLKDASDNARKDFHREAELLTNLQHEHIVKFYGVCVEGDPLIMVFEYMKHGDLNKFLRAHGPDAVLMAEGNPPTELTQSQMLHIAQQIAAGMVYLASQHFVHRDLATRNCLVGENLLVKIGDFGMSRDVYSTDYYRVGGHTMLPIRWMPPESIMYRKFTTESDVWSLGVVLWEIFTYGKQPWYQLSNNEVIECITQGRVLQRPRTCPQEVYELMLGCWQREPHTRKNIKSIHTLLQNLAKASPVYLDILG
T11 sequence (P78556 27-96 limits assumed): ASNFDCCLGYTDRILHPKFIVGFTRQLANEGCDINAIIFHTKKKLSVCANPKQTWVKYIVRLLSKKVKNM
Chain of hTrkB-a isoform fused to a small peptide epitope, in U2OS cells (Discoverx Pathhunter) (Q16620 32-430): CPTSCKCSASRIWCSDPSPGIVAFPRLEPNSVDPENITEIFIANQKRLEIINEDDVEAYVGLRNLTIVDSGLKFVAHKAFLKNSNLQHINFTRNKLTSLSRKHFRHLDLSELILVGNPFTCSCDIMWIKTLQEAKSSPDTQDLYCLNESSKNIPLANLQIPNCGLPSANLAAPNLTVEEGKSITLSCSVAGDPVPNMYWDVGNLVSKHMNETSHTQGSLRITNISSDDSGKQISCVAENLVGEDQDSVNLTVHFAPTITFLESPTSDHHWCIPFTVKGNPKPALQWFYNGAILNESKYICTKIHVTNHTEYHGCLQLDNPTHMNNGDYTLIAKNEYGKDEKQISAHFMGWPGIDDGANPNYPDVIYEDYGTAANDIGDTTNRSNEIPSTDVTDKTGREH
T4 sequence (Q16620 32-430): as above
T9 sequence (Q16620 32-822): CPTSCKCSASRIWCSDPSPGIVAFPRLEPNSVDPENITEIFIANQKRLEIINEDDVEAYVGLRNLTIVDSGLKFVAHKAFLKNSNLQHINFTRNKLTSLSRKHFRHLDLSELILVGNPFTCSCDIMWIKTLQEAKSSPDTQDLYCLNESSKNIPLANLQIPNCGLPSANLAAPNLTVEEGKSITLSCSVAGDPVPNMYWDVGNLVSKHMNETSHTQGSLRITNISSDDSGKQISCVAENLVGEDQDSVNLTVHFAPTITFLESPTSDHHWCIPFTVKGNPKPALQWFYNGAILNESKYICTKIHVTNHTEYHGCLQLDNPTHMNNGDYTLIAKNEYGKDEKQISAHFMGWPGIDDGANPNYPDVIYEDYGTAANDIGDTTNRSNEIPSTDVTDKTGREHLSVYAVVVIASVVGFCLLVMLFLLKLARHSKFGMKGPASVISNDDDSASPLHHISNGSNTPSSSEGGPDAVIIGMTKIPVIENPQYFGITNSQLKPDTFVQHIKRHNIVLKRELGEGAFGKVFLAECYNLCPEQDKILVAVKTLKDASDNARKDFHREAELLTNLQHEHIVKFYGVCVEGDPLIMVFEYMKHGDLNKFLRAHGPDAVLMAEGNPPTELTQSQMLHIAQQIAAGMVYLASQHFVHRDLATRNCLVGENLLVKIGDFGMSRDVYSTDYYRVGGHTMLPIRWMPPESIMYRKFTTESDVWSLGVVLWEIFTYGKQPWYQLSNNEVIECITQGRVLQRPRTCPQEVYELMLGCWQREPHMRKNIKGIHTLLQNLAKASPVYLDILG
Chain of hTrkC in the SHC1 recruitment assay (U2OS, Discoverx Pathhunter) (Q16288 32-839): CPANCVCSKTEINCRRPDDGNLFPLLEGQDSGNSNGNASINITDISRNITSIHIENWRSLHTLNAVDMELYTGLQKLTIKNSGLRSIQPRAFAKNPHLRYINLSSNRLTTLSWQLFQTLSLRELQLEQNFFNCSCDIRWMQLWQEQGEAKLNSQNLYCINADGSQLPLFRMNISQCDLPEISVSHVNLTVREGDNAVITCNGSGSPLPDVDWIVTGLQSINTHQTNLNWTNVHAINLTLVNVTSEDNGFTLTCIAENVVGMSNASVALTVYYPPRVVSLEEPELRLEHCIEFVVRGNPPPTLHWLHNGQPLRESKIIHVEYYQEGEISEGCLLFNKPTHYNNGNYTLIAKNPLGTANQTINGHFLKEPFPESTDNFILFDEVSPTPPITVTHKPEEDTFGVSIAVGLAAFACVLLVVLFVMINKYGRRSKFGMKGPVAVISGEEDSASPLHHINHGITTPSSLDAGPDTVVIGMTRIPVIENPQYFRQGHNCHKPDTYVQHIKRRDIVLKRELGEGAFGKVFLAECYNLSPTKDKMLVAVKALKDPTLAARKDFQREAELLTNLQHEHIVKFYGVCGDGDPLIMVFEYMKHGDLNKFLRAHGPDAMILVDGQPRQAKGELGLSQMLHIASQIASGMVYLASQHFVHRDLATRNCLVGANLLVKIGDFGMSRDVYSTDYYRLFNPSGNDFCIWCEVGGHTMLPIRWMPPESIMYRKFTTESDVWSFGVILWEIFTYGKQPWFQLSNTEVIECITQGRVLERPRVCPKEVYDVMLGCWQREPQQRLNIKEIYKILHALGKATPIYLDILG
T10 sequence (P35225 35-146 limits assumed): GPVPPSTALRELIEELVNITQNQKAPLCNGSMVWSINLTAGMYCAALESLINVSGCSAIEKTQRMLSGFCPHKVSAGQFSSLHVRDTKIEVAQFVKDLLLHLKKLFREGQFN
T14 sequence (chain, as listed by the source mutant limits assumed): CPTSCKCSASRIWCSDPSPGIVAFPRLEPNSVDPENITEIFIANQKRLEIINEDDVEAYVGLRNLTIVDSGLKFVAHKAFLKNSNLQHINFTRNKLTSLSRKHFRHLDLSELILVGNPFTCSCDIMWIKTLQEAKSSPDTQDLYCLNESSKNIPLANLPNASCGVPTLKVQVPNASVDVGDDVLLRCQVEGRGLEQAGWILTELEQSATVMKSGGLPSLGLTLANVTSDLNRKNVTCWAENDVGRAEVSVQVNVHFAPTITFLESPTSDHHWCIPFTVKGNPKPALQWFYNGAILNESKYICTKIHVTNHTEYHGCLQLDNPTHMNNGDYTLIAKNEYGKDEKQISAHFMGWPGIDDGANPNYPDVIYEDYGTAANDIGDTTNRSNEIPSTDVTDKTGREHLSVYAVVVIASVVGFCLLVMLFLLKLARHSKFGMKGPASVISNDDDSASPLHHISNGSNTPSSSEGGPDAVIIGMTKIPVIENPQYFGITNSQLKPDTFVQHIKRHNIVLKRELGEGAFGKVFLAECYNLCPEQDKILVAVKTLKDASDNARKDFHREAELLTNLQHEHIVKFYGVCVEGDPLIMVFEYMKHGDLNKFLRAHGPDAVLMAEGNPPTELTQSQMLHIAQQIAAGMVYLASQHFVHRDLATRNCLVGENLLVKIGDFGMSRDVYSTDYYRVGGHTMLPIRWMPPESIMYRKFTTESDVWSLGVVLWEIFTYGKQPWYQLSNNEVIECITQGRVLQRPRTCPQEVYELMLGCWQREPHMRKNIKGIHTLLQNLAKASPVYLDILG

B1: mouse TOA-1 antibody (antibody, mouse IgG1, V domains shown)
VH: EVQLQQSGPELVKPGASMKISCKTSGYSFTAYFMNWVKQSHGKSLEWIGRINPNNGDTFYTQKFKGKATLTVDKSSNTAHMELLSLTSEDSAIYYCGRRDYFGAMDYWGQGTSVTVSS
VL: AIVLIQSPATLSVTPGDSVSLSCRASQTISNNLHWYQQKSHESPRLLIKSASLAISGIPSRFSGSGSGTDFTLSISSVETEDFGMYFCQQSNSWPNTFGGGTKLEIK
notes: Hybridoma antibody, cloned with mouse IgG1 and mouse Kappa primers; also called muTOA-1; mTOA-1
With B1, the concentration giving a half-maximal response (EC50) in [1] came to 0.4 nM; in [2] it was 0.23 nM. Moreover, the dissociation constant Kd in assay [3] stood at 16.3 nM; in assay [4] it was 14.7 nM. Besides, the binding result in the assay with Chimeric TrkB (d5TrkA) is listed as “no binding (tested: 1.0000 ug/ml)”; in assay [5], “no binding (tested: 10.00 ug/ml)”; with Chimeric TrkA (d4TrkB) it was “no binding (tested: 10.00 ug/ml)”; in [6] it was “no binding (tested: about 6.7 nM)”; in assay [7], “no binding (tested: about 6.7 nM)”.

B2: chimeric TOA-1 antibody (antibody, V domains shown)
VH: B1 VH
VL: B1 VL
notes: also called chiTOA-1; VH mouse / VL mouse
In the case of B2, the half-maximal inhibitory concentration (IC50) in [8] stood at 3.6 nM. The Kd in assay [3] was determined as 17 nM; in [4], 12.1 nM.

B3: BDNF (R&D systems, cat #248-BD) (ligand, human, UniProt P23560 129-247, looked up)
chain: HSDPARRGELSVCDSISEWVTAADKKTAVDMSGGTVTVLEKVPVSKGQLKQYFYETKCNPMGYTKEGCRGIDKRHWNSQCRTTQSYVRALTMDSKKRIGWRFIRIDTSCVCTLTIKRGR
As to B3, in assay [9], the “Cre-luciferase reporter, EC50 (FIG. 38)” value turned out to be 5.2 nM. Also, the “EC50, SHC1 recruitment assay” value in [10] was 5.45 nM; in assay [11] it was 1.02 nM.

B4: C5 (anti-CCL20 antibody, clone C5, parental) (antibody, human IgG1, kappa, V domains shown)
VH: QVQLVQSGAEVKKPGSSVKVSCKASGGTFSSYAISWVRQAPGQGLEWMGGIIPIFGTANYAQKFQGRVTITADESTSTAYMELSSLRSEDTAVYYCAGGSITGTTPFDYWGRGTLVTVSS
VL: AIQLTQSPSSLTASVGDRVTITCRASQFASNDVGWYQQKPGKAPKLLIYAASSLQSGVPPRFSGSGSGTEFTFTISSLQPEDFATYYCLQDYTYPLTFGQGTKVEIKR
notes: also called anti-CCL20-clone5; CCL20-Clone 5
As to B4, the binding result in assay [12] is “no binding”. Further, the “Binding Ratio” value in [13] was 2; in assay [14], 0; in assay [15] it was 2. Further, the “Binding Ratio (measured, before normalisation)” value in assay [13] was 2.18; in assay [15] it was 2.15.

B5: TAM-163 (huTOA-1 v1.0/1.4) (antibody, human IgG1, kappa, V domains shown)
VH: EVQLVESGGGLVQPGGSLRLSCAASGYSFTAYFMNWVRQAPGKGLEWVARINPNNGDTFYTQKFKGRFTISRDNAKNSLYLQMNSLRAEDTAVYYCARRDYFGAMDYWGQGTLVTVSS
VL: DIQMTQSPSSLSASVGDRVTITCRASQTISNNLHWYQQKPGKAPKLLIKSASLAISGVPSRFSGSGSGTDFTLTISSLQPEDFATYYCQQSNSWPNTFGGGTKVEIKR
notes: IgG1 with effector-function ablating CH2; Also used biotinylated; also called humanized TOA-1; Humanized TOA1
In the case of B5, the “IC50 (read off the curve)” value with rhTrkB-ECD-His was around 8 nM; in assay [20] it was around 6 nM. The values for the binding result (in assay [16]; in [7]; in the assay with Chimeric TrkB (d4TrkA)) were “no binding”, “no binding (tested: about 6.7 nM)” and “binds”, respectively. For the same molecule, the EC50 in [1] was 0.33 nM; in assay [2] it was 0.52 nM; in assay [17], 0.34 nM; in assay [18], 0.39 nM. Besides, the “Cre-luciferase reporter, maximum fold-increase (FIG. 38)” value in [9] was 5 fold. The Kd in assay [3] worked out at 11.4 nM; in [4], 9.4 nM. Besides, the results for the “Fold-increase, SHC1 recruitment assay” value in [10], in assay [11] and in [19] were 1 fold, 5.2 fold and 1.1 fold, respectively. The “EC50, SHC1 recruitment assay” value in assay [11] is 0.67 nM. The “EC50, hTrkB Cre-luc reporter assay, lot L40042-192” value in assay [21] was 0.24 nM and 0.39 nM and 0.61 nM. Further, in assay [21], the “EC50, hTrkB Cre-luc reporter assay, lot L42385-008” value is 0.25 nM and 0.37 nM. Further, the “EC50, hTrkB Cre-luc reporter assay, lot L42385-024” value in assay [21] was determined as 0.13 nM. Moreover, the “EC50, hTrkB Cre-luc reporter assay, lot L42385-152” value in assay [21] came out at 0.1 nM. In assay [21], the “Fold-increase, hTrkB Cre-luc reporter assay, lot L42385-024” value came to 5.3 fold. Besides, the “Fold-increase, hTrkB Cre-luc reporter assay, lot L42385-152” value in assay [21] was 4.5 fold.

B6: huTOA-1 v1.0/2.0 (antibody, V domains shown)
VH: B5 VH
VL: EIVMTQSPATLSVSPGERATLSCRASQTISNNLHWYQQKPGQAPRLLIYSASLAISGIPARFSGSGSGTEFTLTISSLQSEDFAVYYCQQSNSWPNTFGGGTKVEIK
notes: Human IgG; constant regions not restated; also called VH human v1.0 / VL human v2.0
As to B6, the IC50 in assay [8] came out at 5.9 nM. Also, the Kd in [3] was found to be 20.9 nM; in assay [4] it was 16.5 nM.

B7: huTOA-1 VH v1.0 / VL v1.3 (antibody, V domains shown)
VH: B5 VH
VL: DIQMTQSPSSLSASVGDRVTITCRASQTISNNLHWYQQKPGKSPKLLIYSASLAISGVPSRFSGSGSGTDFTLTISSLQPEDFATYYCQQSNSWPNTFGGGTKVEIK
notes: Human IgG; constant regions not restated; also called hu v1.0 / hu v1.3
Turning to B7, in assay [20], the “IC50 (read off the curve)” value is around 9 nM.

B8: huTOA-1 VH v1.0 / VL v1.2 (antibody, V domains shown)
VH: B5 VH
VL: B7 VL with K42E, S43A
notes: Human IgG; constant regions not restated; also called hu v1.0 / hu v1.2
Consider B8, for which, in [20], the “IC50 (read off the curve)” value is around 9 nM.
